# Data from publication PMC6625990 (2019).
# No end group written: not given here. *: point of attachment. Biotin = O=C1N[C@H]2[C@H](CS[C@H]2CCCCC(=O)*)N1
# Biological target: T1, bovine Ric8A1–492 (bovine, UniProt Q5E9J8 1-492)
# T1 chain: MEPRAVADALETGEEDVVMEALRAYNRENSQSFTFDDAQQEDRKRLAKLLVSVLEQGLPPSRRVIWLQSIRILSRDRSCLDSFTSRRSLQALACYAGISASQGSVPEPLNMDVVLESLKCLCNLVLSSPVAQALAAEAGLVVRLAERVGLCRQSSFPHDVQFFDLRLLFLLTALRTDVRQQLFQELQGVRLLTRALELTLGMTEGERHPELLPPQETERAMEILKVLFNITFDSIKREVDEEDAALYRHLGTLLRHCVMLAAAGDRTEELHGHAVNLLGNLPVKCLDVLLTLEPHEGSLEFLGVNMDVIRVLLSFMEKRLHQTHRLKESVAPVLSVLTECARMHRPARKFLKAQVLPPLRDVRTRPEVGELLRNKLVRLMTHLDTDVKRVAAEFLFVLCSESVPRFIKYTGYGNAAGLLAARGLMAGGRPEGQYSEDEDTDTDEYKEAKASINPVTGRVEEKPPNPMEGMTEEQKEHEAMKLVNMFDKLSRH
# Test: BLI
row,Binder,Kd [µM]
1,Biotin-NDCRDIIQRMHLRQYELL [Gαs363–380],4.4
2,Biotin-NDCRDIIIRMNLRQCGLF (cysteine pairing not given here) [peptide C2],0.063
3,Biotin-NDCRDIIQRMHLRQCGLF (cysteine pairing not given here) [peptide C1],4.7
